# Assay results taken from PMC11344281 (Protein Science : A Publication of the Protein Society, 2024).
# B1: Use1 SNARE domain (aa 174–239) (domain or fragment)
# chain: QRHQGLQEKLAEEMLGLARSLKTNTLAAQSVIKKDNQTLSHSLKMADQNLEKLKLESERLEQHAQK
# B2: syntaxin 18 SNARE domain (aa 229–312) (domain or fragment)
# chain: EEIQMFEQENQRLIGEMNSLFDEVRQIEGKVVEISRLQEIFTEKVLQQETEIDSIHQLVVGATENIKEGNEDIREAIKNNAGFR
# B3: U_SNAP (Sec20, aa 133–198; Use1, aa 174–239), chimeric Qbc-SNARE with the SNAP-25 linker (other)
# chain: QTSSSITESLMGISRMMSQQVQQSEEAMQTLVSSSRTLLDANEEFKSMSGTIQLGRKLITKYNRREGLSVSPSNKLKSSDAYKKAWGNNQDGVVASQPARVVDEREQMAISGGFIRRVTNDQRHQGLQEKLAEEMLGLARSLKTNTLAAQSVIKKDNQTLSHSLKMADQNLEKLKLESERLEQHAQK
# B4: Sec20 SNARE domain (aa 133–198) (domain or fragment)
# chain: QTSSSITESLMGISRMMSQQVQQSEEAMQTLVSSSRTLLDANEEFKSMSGTIQLGRKLITKYNRRE
# Tests used:
# [1] = target: B2; experiment: native gel or EMSA + SEC
# [2] = target: synaptobrevin 2 (aa 1–96) (Rattus norvegicus, UniProt P63045 1-96); experiment: native gel or EMSA + SEC
# [3] = target: B2; experiment: native gel or EMSA
# [4] = target: B1; experiment: native gel or EMSA + SEC
# Sequence of synaptobrevin 2 (aa 1–96) (P63045 1-96): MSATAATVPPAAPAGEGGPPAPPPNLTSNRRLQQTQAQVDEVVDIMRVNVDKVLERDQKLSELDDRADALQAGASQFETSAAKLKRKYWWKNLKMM
binder,measurement,setting,value
B1,binding result,[1],binds
B2,binding result,[2],binds
B3,binding result,[3],binds
B4,binding result,[1],binds
same,binding result,[4],binds
